Assays:
[1] = molecular target: T1, CD33 protein (AcroBiosystems) conjugated to biotin (UniProt P20138 18-259, biotinylated (site not stated)); test: flow cytometry; cell-surface CAR on edited T cells labelled with biotinylated CD33 protein and streptavidin-APC
T1 construct: Soluble bought reagent used at 2 ug/uL with streptavidin-APC to label cell-surface anti-CD33 CAR; also called biotinylated CD33 protein, CD3-H82E7
Experimental: About one (1) week post electroporation, gene-edited T cells were analyzed by flow cytometry to assess the percentage of the cell population that expressed an anti-CD33 CAR. Labeling of cell-surface anti-CD33 CAR was done with a combination of a CD33 protein (AcroBiosystems) conjugated to biotin and a streptavidin-APC secondary reagent (FIG. 1A, FIG. 1B and FIG. 1C). […] In contrast, certain T cells generated with a TRAC and B2M gene disruption and a CAR construct did result in a high percentage of the population that expressed an anti-CD33 CAR. […] However, not all T cells prepared with a CAR construct had CAR expression. […] Indeed, this outcome was not altered by switching the CAR co-stimulatory domain (e.g., CTX-964 compared to CTX-964b).

[2] = molecular target: CD33 on the surface of human cells (AML cell lines THP-1, KG-1, MV4-11; activated primary human T cells) (human, UniProt P20138 18-364); test: cell-based or functional assay
Sequence of CD33 on the surface of human cells (AML cell lines THP-1, KG-1, MV4-11; activated primary human T cells) (P20138 18-364): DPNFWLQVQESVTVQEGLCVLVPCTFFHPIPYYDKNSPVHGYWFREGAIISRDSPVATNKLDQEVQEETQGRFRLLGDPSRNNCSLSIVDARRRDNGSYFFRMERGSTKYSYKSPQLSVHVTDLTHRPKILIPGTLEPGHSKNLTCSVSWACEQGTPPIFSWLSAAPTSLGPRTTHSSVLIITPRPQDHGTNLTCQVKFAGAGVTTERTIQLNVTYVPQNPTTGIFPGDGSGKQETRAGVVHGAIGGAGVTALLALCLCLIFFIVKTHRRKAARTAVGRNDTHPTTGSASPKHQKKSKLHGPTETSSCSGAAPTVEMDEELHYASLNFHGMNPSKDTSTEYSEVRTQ

T1 sequence (P20138 18-259 limits assumed): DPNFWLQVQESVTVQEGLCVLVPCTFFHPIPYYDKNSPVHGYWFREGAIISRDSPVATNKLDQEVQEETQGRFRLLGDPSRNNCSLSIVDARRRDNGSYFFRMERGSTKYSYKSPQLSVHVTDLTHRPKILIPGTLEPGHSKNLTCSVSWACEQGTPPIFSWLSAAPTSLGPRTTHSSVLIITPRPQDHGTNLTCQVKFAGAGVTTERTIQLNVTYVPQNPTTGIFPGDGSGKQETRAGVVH

B1: CTX-982 CAR (anti-CD33 CAR, Antibody C scFv VH-VL, CD28 co-stimulatory domain, CD3z) (other)
chain: EVQLVQSGAEVKKPGSSVKVSCKASGYTITDSNIHWVRQAPGQSLEWIGYIYPYNGGTDYNQKFKNRATLTVDNPTNTAYMELSSLRSEDTAFYYCVNGNPWLAYWGQGTLVTVSSGGGGSGGGGSGGGGSDIQLTQSPSTLSASVGDRVTITCRASESLDNYGIRFLTWFQQKPGKAPKLLMYAASNQGSGVPSRFSGSGSGTEFTLTISSLQPDDFATYYCQQTKEVPWSFGQGTKVEVKSAAAFVPVFLPAKPTTTPAPRPPTPAPTIASQPLSLRPEACRPAAGGAVHTRGLDFACDIYIWAPLAGTCGVLLLSLVITLYCNHRNRSKRSRLLHSDYMNMTPRRPGPTRKHYQPYAPPRDFAAYRSRVKFSRSADAPAYQQGQNQLYNELNLGRREEYDVLDKRRGRDPEMGGKPRRKNPQEGLYNELQKDKMAEAYSEIGMKGERRRGKGHDGLYQGLSTATKDTYDALHMQALPPR
binding result [1]: binds

B2: CTX-982b CAR (anti-CD33 CAR, Antibody C scFv VH-VL, 41BB co-stimulatory domain, CD3z) (other)
chain: EVQLVQSGAEVKKPGSSVKVSCKASGYTITDSNIHWVRQAPGQSLEWIGYIYPYNGGTDYNQKFKNRATLTVDNPTNTAYMELSSLRSEDTAFYYCVNGNPWLAYWGQGTLVTVSSGGGGSGGGGSGGGGSDIQLTQSPSTLSASVGDRVTITCRASESLDNYGIRFLTWFQQKPGKAPKLLMYAASNQGSGVPSRFSGSGSGTEFTLTISSLQPDDFATYYCQQTKEVPWSFGQGTKVEVKSAAAFVPVFLPAKPTTTPAPRPPTPAPTIASQPLSLRPEACRPAAGGAVHTRGLDFACDIYIWAPLAGTCGVLLLSLVITLYCNHRNRKRGRKKLLYIFKQPFMRPVQTTQEEDGCSCRFPEEEEGGCELRVKFSRSADAPAYQQGQNQLYNELNLGRREEYDVLDKRRGRDPEMGGKPRRKNPQEGLYNELQKDKMAEAYSEIGMKGERRRGKGHDGLYQGLSTATKDTYDALHMQALPPR
percent cell lysis of CD33 KO MV4-11 cells (CD33-deficient comparison) at 1:1 ratio [2]: > 60%

B3: CTX-969 CAR (anti-CD33 CAR, Antibody B scFv VH-VL, CD28 co-stimulatory domain, CD3z) (other)
chain: QVQLVQSGAEVKKPGASVKVSCKASGYTFTNYDINWVRQAPGQGLEWIGWIYPGDGSTKYNEKFKAKATLTADTSTSTAYMELRSLRSDDTAVYYCASGYEDAMDYWGQGTTVTVSSGGGGGSGGGGSGGGGSDIQMTQSPSSLSASVGDRVTINCKASQDINSYLSWFQQKPGKAPKTLIYRANRLVDGVPSRFSGSGSGQDYTLTISSLQPEDFATYYCLQYDEFPLTFGGGTKVEIKSAAAFVPVFLPAKPTTTPAPRPPTPAPTIASQPLSLRPEACRPAAGGAVHTRGLDFACDIYIWAPLAGTCGVLLLSLVITLYCNHRNRSKRSRLLHSDYMNMTPRRPGPTRKHYQPYAPPRDFAAYRSRVKFSRSADAPAYQQGQNQLYNELNLGRREEYDVLDKRRGRDPEMGGKPRRKNPQEGLYNELQKDKMAEAYSEIGMKGERRRGKGHDGLYQGLSTATKDTYDALHMQALPPR
binding result [1]: binds

— patent US20220226375A1 (CRISPR THERAPEUTICS, published 2022)
